According to patent publication US20230331835A1 (published 2023):

Legend:
BMECs [1] = assay: cell binding, apparent equilibrium affinity; apparent Kd; 95% CI 29-47
BMECs [2] = assay: cell binding, apparent equilibrium affinity; apparent Kd; 95% CI 27-60
BMECs [3] = assay: cell binding, apparent equilibrium affinity; apparent Kd; 95% CI 30-74
BMECs [4] = assay: cell binding, apparent equilibrium affinity; apparent Kd; 95% CI 19-36
BMECs [5] = assay: cell binding, apparent equilibrium affinity; apparent Kd; 95% CI 128-179

B1: 26 (Fc fusion)
chain: QVELVESGGGLVQPGGSLRLSCAASGFTFSTYWMNWVRQAPGKGLEWVAIINQDGTAEYYVDSVEGRFTISRDNAKNSLYLQMTSLRVEDTAVYYCATPTGDSDYWGQGTLVTVSSGGGGSGGGGSGGGGSSELTQDPAVSVALGQTVRITCQGDSLRSYYATWYQQKPGQAPVAVIYGQNNRPSGIPDRFSGSNSGNTASLTITAALAEDEADYYCHSRDSSGNHVLFGGGTKLTVLG
- Kd (BMECs [1]): 38 nM

B2: 9 (Fc fusion)
chain: QVQLVESGGGVTQPGLSLRLSCAASGFTFSSYAMSWVRQAPGKGLEWVSAISGSGGSTYYADSVKGRFTISRDNSKNTLYLQMNSLRAEDTAVYYCARGWKYFDYWGQGTLVTVSSSGGGSGGGGSGGGGSETTLTQSPSTLSASIGDRVAITCRASEGIYHWLAWYQQKPGKAPKLLIYKASSLASGAPSRFSGSGSGTDFTLTISSLQPDDFATYYCQQYHTISRTFGPGTKVEIKR
- Kd (BMECs [2]): 44 nM

B3: 3 (Fc fusion)
chain: QVQLQESGGGVVQPGRSLRLSCAASGFTFSSYAMHWVRQAPGKGLEWVAVISYDGSNKYYADSVKGRFTISRDNSKNTLYLQMNSLRAEDTAVYYCARDSKGQSVRNRFDPWGQGTLVTVSSGGGGSGGGGSGGGGSSELTQDPAVSVALGQTVRITCQGDNLRSYYASWYQQRPGQAPILVLYANTHRPSSIPDRFSGSSSGNTASLTITGAQAEDEADYYCNSRDSSGNLVVFGGGTKLTVLG
- Kd (BMECs [3]): 52 nM

B4: 17 (Fc fusion)
chain: QVQLLQSAGALVQPGGSLRLSCAASGFTFSSSTMHWVRQAPGKGLEWVAVVSYDGNTQYYADSVKGRFTISRDNSKNTLSLQMNNLRAEDTAVYYCAGLWGSLLGYFQHWGQGTLVTVSSGGGGSGGGGSGGGGSDIQMTQSPSFLSASVGDRVTITCRASQGVNNYLAWYQQKPGKAPKLLIYAASTLQSGVPSSFSGSGSGTEFTLTISSLQPEDFATYFCQQAHSFPPTFGGGTKLEIKR
- Kd (BMECs [4]): 28 nM

B5: 46.1 (Fc fusion)
chain: QVQLQESGGGLAQPGGSLRLSCAASGFTFSGYWMHWVRQAPGKGLVWVSRIKGDGTDIEYADSVKGRFTISRDNAKNTLYLQMNSLRAEDTAVYYCARDLRQTHWFDSWGQGTLVTVSSGGGGSGGGGSGGGGSQSALTQDPAVSVALGQTVRITCQGDSLRSYYASWYQQKPGQAPVLVMYGENSRPSGIPDRFSGSNSGNTASLIITGAQAEDEADYYCSSRDTSGNHVLFGGGTKLTVLG
- Kd (BMECs [5]): 153 nM
